Data on 167 variants can be found in the RNAGym collection of RNA variant scans (doi:10.7554/elife.80360).

B1: CPEB3 Ribozyme (parent)
chain: GGGGGCCACAGCAGAAGCGUUCACGUCGCGGCCCCUGUCAGAUUCUGGUGAAUCUGCGAAUUCUGCUGU

The series covers variants of B1. The series is described as follows: self-cleavage, relative activity (ratio to wild type); higher = more cleavage; co-transcriptional.
With C9A U61A, the self-cleavage came to 0.988.

C9A U61C: the self-cleavage worked out at 0.863.

Take C9A U61G: the self-cleavage was found to be 0.86. Regarding C9A G68A, the self-cleavage was 1.04. Take C9A G68C: the self-cleavage worked out at 1.05. C9A G68U: the self-cleavage worked out at 1.04. In the case of C9G A16U it was 0.887.

On to C9G A16G, for which the self-cleavage amounted to 0.957. On to C9G U62C, for which the self-cleavage was determined as 0.96. To C9G U62G belongs 0.849; to C9G U62A, 0.977.

As for C9A U53A, the self-cleavage is 1.03. In the case of C9A U53C it was 0.997; in that of C9U A60G, 0.983. With C9U A60C, the self-cleavage stood at 0.303.

Regarding C9G U46A, the self-cleavage is 1.03. C9G C54U: the self-cleavage was found to be 1.05.

Take C9G C54A: the self-cleavage was found to be 0.931. In the case of C9U G28C it was 0.173; in that of C9U G28A, 0.227; in that of C9U G68U, 1.02. For C9U G68A, the self-cleavage was 1.05.

On to C9G A15C, for which the self-cleavage came to 0.819. For C9A A59G, the self-cleavage is 1.03. To C9A A59C belongs 0.854. To C9U A23G belongs 1.01; to C9U A23U, 1.01. For C9U A23C, the self-cleavage was 0.982. As for C9A U36C, the self-cleavage stood at 0.968. Take C9A U36G: the self-cleavage was determined as 0.244. With C9A U43A, the self-cleavage came out at 0.967. In the case of C9A U43G it was 0.876; in that of C9U A16C, 0.531. In the case of C9U U55A it was 0.932. Consider C9U U55C, for which the self-cleavage is 1.02. Regarding C9U U55G, the self-cleavage was determined as 0.953. In the case of C9A U20A it was 0.0654. To C9A U20G belongs 0.19. On to C9G C63A, for which the self-cleavage turned out to be 0.909. On to C9G C63U, for which the self-cleavage came out at 0.973. Take C9A G47U: the self-cleavage was determined as 1.05.

As to C9A G47A, the self-cleavage stood at 1.03. In the case of C9G A23G it was 0.976; in that of C9G A23U, 0.978; in that of C9U U20C, 0.186. To C9U U20A belongs 0.148; to C9G A42C, 1.03. In the case of C9G A42U it was 1.01; in that of C9G A42G, 0.949. With C9A C34A, the self-cleavage is 1.01. To C9A C34U belongs 1.04. Consider C9G C29A, for which the self-cleavage came out at 0.84.

Consider C9G C29G, for which the self-cleavage amounted to 0.695.

For the variant C9G C29U, the self-cleavage stood at 0.897.

As to C9G A13C, the self-cleavage is 0.845.

As to C9G A13G, the self-cleavage stood at 0.922. In the case of C9U G48U it was 1.03. In the case of C9U G48A it was 1.03; in that of C9G G17C, 0.176; in that of C9U C45U, 1.01. In the case of C9U C45A, the self-cleavage is 1.01. In the case of C9U G50C it was 1.02; in that of C9U G50U, 1. Turning to C9U C66A, the self-cleavage was found to be 0.968. To C9U C66U belongs 1.05; to C9G C12G, 0.878; to C9G C12U, 1. Consider C9G C12A, for which the self-cleavage amounted to 0.789. Consider C9U U61A, for which the self-cleavage amounted to 1. Turning to C9U U61G, the self-cleavage came to 0.985. On to C9A C45U, for which the self-cleavage worked out at 1.01. In the case of C9A C45A it was 1.02; in that of A10C, 1.01. Turning to C9G G41U, the self-cleavage is 0.888. In the case of C9G G41C it was 0.964. With C9A A40U, the self-cleavage came to 0.969. As for C9G A52G, the self-cleavage was found to be 1.05. C9A A60C: the self-cleavage amounted to 0.364. To C9A A60U belongs 0.632; to C9A A60G, 1.04. Turning to C9G G14U, the self-cleavage is 0.756. To C9G G14C belongs 0.565.

Turning to C9G C22U, the self-cleavage came to 0.445. As for C9G C22G, the self-cleavage is 0.257.

As for C9U G58C, the self-cleavage worked out at 1.02. To C9U G37A belongs 0.364. To C9G U38G belongs 0.343. To C9G U38A belongs 0.988; to C9G G28U, 0.104; to C9A C35G, 0.72. C9A C35U: the self-cleavage amounted to 1.03. In the case of C9A C35A it was 0.423; in that of C9U G14A, 0.878.

As to C9U U69G, the self-cleavage was 1.07. In the case of C9U U69A it was 1.03.

In the case of C9G C57G, the self-cleavage stood at 0.334. With C9G C57A, the self-cleavage stood at 0.402. To C9A C24G belongs 0.697; to C9A G11A, 0.938; to C9A G11C, 0.935. In the case of C9A G11U it was 0.973.

Consider C9G C18A, for which the self-cleavage was determined as 0.256. To C9G C18G belongs 0.2; to C9U G56C, 0.959; to C9U G56A, 0.992.

Consider C9U G30U, for which the self-cleavage was determined as 0.837. To C9G G37U belongs 0.323. In the case of C9G U44C it was 0.954; in that of C9G U44A, 0.956; in that of C9A C32U, 1.01. In the case of C9G C39U it was 0.878. For the variant C9G C39A, the self-cleavage stood at 0.912.

For C9G C39G, the self-cleavage was 0.981.

In the case of C9U G17A, the self-cleavage was found to be 0.817. To C9U C54A belongs 0.978; to C9U C54G, 0.994; to C9U U21C, 0.999. For C9A C12G, the self-cleavage turned out to be 0.936. In the case of C9A C12U it was 1.02. To C9A C18U belongs 0.919; to C9A C18A, 0.188; to C9G A40G, 0.968. As to C9U C32A, the self-cleavage amounted to 1.02. In the case of C9U C32G it was 0.838. In the case of C9G A60U it was 0.486; in that of C9G A60C, 0.385. For C9U U49C, the self-cleavage came out at 1.01. In the case of C9U U49A it was 0.99. Regarding C9U U49G, the self-cleavage amounted to 0.957.

For the variant C9G C27U, the self-cleavage amounted to 0.888. In the case of C9U G19A it was 0.249. As for C9U G19U, the self-cleavage was determined as 0.855.

For C9U A51C, the self-cleavage came out at 1.03. As for C9U A51G, the self-cleavage stood at 1.02. Consider C9U C57U, for which the self-cleavage is 0.38. On to C9U C57A, for which the self-cleavage was 0.32. In the case of C9G U43A it was 1.02; in that of C9G U43C, 0.996; in that of C9G U43G, 0.955. To C9G U55C belongs 0.877; to C9G U55G, 0.865.

As for C9U U67G, the self-cleavage came to 1.01. In the case of C9U U67A it was 1.01; in that of C9U U67C, 1.02; in that of C9A G25U, 0.181. In the case of C9A G25A it was 0.264; in that of C9U U46C, 1.02. For the variant C9U U46G, the self-cleavage stood at 1.04. Turning to C9U U46A, the self-cleavage came out at 0.964. On to C9U A59G, for which the self-cleavage turned out to be 0.986.

Turning to C9G C45G, the self-cleavage worked out at 0.996. In the case of C9A G65C, the self-cleavage came to 0.627. Turning to C9G A51G, the self-cleavage turned out to be 0.993. To C9G A51U belongs 0.976. For the variant C9A C63U, the self-cleavage came out at 0.985.

Turning to C9A U21C, the self-cleavage is 0.985.

With C9A U21G, the self-cleavage was 0.774. In the case of C9A G37C it was 0.242; in that of C9A G37A, 0.397; in that of C9A C66A, 0.905. Turning to C9A C66G, the self-cleavage came out at 0.923. To C9G C24A belongs 0.872; to C9G C24U, 0.9; to C9U G41A, 0.923. To C9G G25C belongs 0.108. To C9G G25U belongs 0.207; to C9G G25A, 0.216.
